Changes are numbered by the printed parent chain.
T1: human CD24 on cells (human, UniProt P25063 27-59)
T1 chain (looked up): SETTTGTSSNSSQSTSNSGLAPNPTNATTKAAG

B1: 67-H2E7, IgG1, Kappa (antibody, V domains shown)
VH: EVQLQQSGPELVKPGASVKISCKASGYEFTGYHMNWVKQSPEKSLEWIGEINPITSDKTFNQKFKAKATLTVDRSSTTAYMHLKSLTSEDSAVYYCARRDYDTSLDYWGQGTTLTVSS
VL: DVQITQSPSYLAASPGETITIYCRASKSISKYLAWYQEKPEKTNRLLIYAGSTLQSGIPSRFRGSGSGKDFTLTVSGLEPEDFAMYYCQQHNEYPLTFGAGTKLDLK
B2: 85-D5A10 (4434), IgG1, Kappa (antibody, V domains shown)
VH: B1 VH with T77S, E89D, D102G
VL: B1 VL with N44I, L96I, D105E, K107I
B3: 79-E3H3, IgG4, Kappa (antibody, V domains shown)
VH: B1 VH with T77S
VL: B1 VL with D105E
B4: 79-E3H3, IgG1, Kappa (antibody, V domains shown)
VH: B1 VH with T77S
VL: B1 VL with D105E
B5: 89-E8C12 (4428), IgG1, Kappa (antibody, V domains shown)
VH: B1 VH with E28D, H33Y, V37M, D57H, K58N, T77S, D102G
VL: B1 VL with N44I, K69T, D105E
B6: 67-H2E7, IgG4, Kappa (antibody, V domains shown)
VH: B1 VH
VL: B1 VL
B7: 59-G9D7, IgG4, Kappa (antibody, V domains shown)
VH: QVQLQQPGADLVKPGASVKLSCKASGYTVTTYWMHWVRQRPGRGLEWIGRIDPNSGETKYSEKFKNKATLTVDRPSSTAYMQLSSLTFEDSAVYFCAIYYYLNNFLFDYWGQGTTLTVSS
VL: ENVLTQSPAIMSASPGEKVTMTCRASSSVSSSYLHWYQKKSGASPKLWIYSTSNLASGVPARFSGSGSGTSYSLTISSVEAEDAATYYCQQYSGYPLTFGAGTKLELK
B8: 62-F7E9, IgG4, Kappa (antibody, V domains shown)
VH: QVQLQQPGAELVKPGASVKLSCKASGYTSTSYWLHWVKQRPGRGLEWIGRIDPNSGETKFNEKFKSQATLTVDKPSSTAYMQLNSLTSEDSAVYYCALYYYGSILFDYWGQGTTLTVSS
VL: B7 VL with A25T, S28I, V29I, S32G, Y33F, K39Q, Y95H
B9: 45-H1E4, IgG4, Kappa (antibody, V domains shown)
VH: QIQLVQSGPELKKPGETVKISCKASGYTFTTYGMSWMKQAPGKGLKWMGWINTYSGVPAYADDFKGRFAFSLDTSASTAYLQINNLKNEDTATYFCARSGYPWSPHSYSTDYWGQGISVTVSS
VL: DVLLTQTPLSLPVSLGDQASISCKSSQSIVHSNGNTYLEWYLQKPGQSPKRLIYKVSNRFSGVPDRFSGSGSGTDFTLKISRVEAEDLGVYYCFQGSHVPWTFGGGTKLEIK
B10: 76-F8C6, IgG4, Kappa (antibody, V domains shown)
VH: EVKLEESGGGLVQPGGSMKLSCVASGFTFTNSWMNWVRQSPERGLDWVAQIQLKSDNYATRYVESVKGRFTISRDDSKNSVYLQMNNLRAEDTGIYYCTTGTDYWSQGTTLTVSS
VL: not shown
B11: 66-D1B10, IgG4, Kappa (antibody, V domains shown)
VH: B10 VH with K3R, L11F, F27L, T30P, S32H, D46A, K78E, N79S, S80T, S106G
VL: not shown
B12: 75-H8B9, IgG4, Kappa (antibody, V domains shown)
VH: EVNLEESGGGLVQPGGSRQLSCVASGLTFSKHWMNWVRQSPDKGLEWVAQIQLKSDNYAIRYVDSVKGRFTISRDDSENTVYLQMNNLRAEDTGIYYCTTGTDYWGQGTTLTVSS
VL: not shown
B13: 75-H8B9, IgG1, Kappa (antibody, V domains shown)
VH: B12 VH
VL: not shown
B14: 70-F4E5, IgG4, Kappa (antibody, V domains shown)
VH: B12 VH
VL: not shown
B15: 70-F4E5, IgG1, Kappa (antibody, V domains shown)
VH: B12 VH
VL: not shown
B16: 80-F10A6, IgG1, Kappa (antibody, V domains shown)
VH: EVQLQQSGPVLVNPGASVKISCKASGYSFTGYYMNWVKQSPEKSLEWIGEVNPITGDTTYSQNFKAKTTLTVDRSSSTAYMQLKSLTSEDSAVYYCTRRDYGTSLDYWGQGTTLTVSS
VL: DVQITQSPSYLAASPGETITIHCRASKSISRYLAWYQEKPGKINTLLIYAGSTLHLGIPSRFSGSGSGTDFTLTISSLELEDFAMYYCQQHNEYPITFGAGTKLELK
B17: 90-D11B6, IgG1, Kappa (antibody, V domains shown)
VH: EVQLQQSGPELVKPGASVRISCKASGYSFTGYYMNWVKQSPEKNLEWIGEINPITGGSTYNQKFVAKATLTVDRSSSTAYMQLKSLTSEDSAVYYCTRRDYDTSLDYWGQGTTLTVSS
VL: B16 VL with H22N, R31K, I43T, N44I, T45K, H55Q, L56S, S67Y, L80P, I96L
B18: 90-D11B6, IgG4, Kappa (antibody, V domains shown)
VH: B17 VH
VL: B16 VL with H22N, R31K, I43T, N44I, T45K, H55Q, L56S, S67Y, L80P, I96L
B19: 63-B10B9, IgG1, Kappa (antibody, V domains shown)
VH: B17 VH with R19K, N44S, S58T, V65R, R98K, T115I
VL: DVQITQSPSYLAAFPGETITINCRASKSIKKYLAWYQEKPGKTNNLLIYSGSTLQSGIPSRFSGSGTGTDFTLTISSLEPEDFAMYYCQQHNEYPLTFGAGTKLELK
B20: 63-B10B9, IgG4, Kappa (antibody, V domains shown)
VH: B17 VH with R19K, N44S, S58T, V65R, R98K, T115I
VL: B19 VL

Biological target: T1, human CD24 on cells
Test: cell-based or functional assay
B1 was tested, and the “EC50 of Phagocytosis assay, IgG1, Kappa; HEK293-CD24” value (from here on “EC50 … IgG1, Kappa; HEK293-CD24”) was 0.42 µg/mL, the “EC50 of Phagocytosis assay, IgG1, Kappa; MCF-7” value (from here on “EC50 … IgG1, Kappa; MCF-7”) was 0.45 µg/mL and the “EC50 of Phagocytosis assay, IgG1, Kappa; NALM6” value (“EC50 … IgG1, Kappa; NALM6” below) was 0.22 µg/mL. For the same binder, the “EC50 of Phagocytosis assay, IgG1, Kappa; OVCAR3” value (shortened to “EC50 … IgG1, Kappa; OVCAR3”) was 8.46 µg/mL. In the case of B2, the “EC50 … IgG1, Kappa; HEK293-CD24” value is reported as 6.76 µg/mL, the “EC50 … IgG1, Kappa; MCF-7” value is reported as 0.42 µg/mL and the “EC50 … IgG1, Kappa; NALM6” value is reported as 0.32 µg/mL. The “EC50 … IgG1, Kappa; OVCAR3” value was 0.13 µg/mL. With B3 the “EC50 of Phagocytosis assay, IgG4, Kappa; HEK293-CD24” value (from here on “EC50 … IgG4, Kappa; HEK293-CD24”) was 0.58 µg/mL, the “EC50 of Phagocytosis assay, IgG4, Kappa; MCF-7” value (from here on “EC50 … IgG4, Kappa; MCF-7”) was 1.42 µg/mL and the “EC50 of Phagocytosis assay, IgG4, Kappa; NALM6” value (“EC50 … IgG4, Kappa; NALM6” below) was 0.72 µg/mL. The “EC50 of Phagocytosis assay, IgG4, Kappa; OVCAR3” value (shortened to “EC50 … IgG4, Kappa; OVCAR3”) was 0.42 µg/mL. B4 was tested, and the “EC50 … IgG1, Kappa; HEK293-CD24” value was 0.19 µg/mL, the “EC50 … IgG1, Kappa; MCF-7” value was 0.52 µg/mL and the “EC50 … IgG1, Kappa; NALM6” value was 0.49 µg/mL. For the same binder, the “EC50 … IgG1, Kappa; OVCAR3” value was 0.44 µg/mL. B5 was tested, and the “EC50 … IgG1, Kappa; HEK293-CD24” value was 0.2 µg/mL, the “EC50 … IgG1, Kappa; MCF-7” value was 0.33 µg/mL and the “EC50 … IgG1, Kappa; NALM6” value was 0.23 µg/mL. The “EC50 … IgG1, Kappa; OVCAR3” value was 0.15 µg/mL. For B6, the “EC50 … IgG4, Kappa; HEK293-CD24” value was 0.51 µg/mL, the “EC50 … IgG4, Kappa; MCF-7” value was 1.28 µg/mL and the “EC50 … IgG4, Kappa; NALM6” value was 0.68 µg/mL. For the same binder, the “EC50 … IgG4, Kappa; OVCAR3” value was 0.71 µg/mL. B7 was tested, and the “EC50 … IgG4, Kappa; HEK293-CD24” value was 2.08 µg/mL, the “EC50 … IgG4, Kappa; MCF-7” value was 0.19 µg/mL and the “EC50 … IgG4, Kappa; NALM6” value was 6.57 µg/mL. For the same binder, the “EC50 … IgG4, Kappa; OVCAR3” value was 1.26 µg/mL. For B8, the “EC50 … IgG4, Kappa; HEK293-CD24” value was 10.5 µg/mL, the “EC50 … IgG4, Kappa; MCF-7” value was 0.21 µg/mL and the “EC50 … IgG4, Kappa; NALM6” value was 0.01 µg/mL. The “EC50 … IgG4, Kappa; OVCAR3” value was 1.41 µg/mL. B9 was tested, and the “EC50 … IgG4, Kappa; HEK293-CD24” value was 0.9 µg/mL, the “EC50 … IgG4, Kappa; MCF-7” value was 7 µg/mL and the “EC50 … IgG4, Kappa; NALM6” value was 5.36 µg/mL. For the same binder, the “EC50 … IgG4, Kappa; OVCAR3” value was 3.35 µg/mL. With B10 the “EC50 … IgG4, Kappa; HEK293-CD24” value was 0.4 µg/mL, the “EC50 … IgG4, Kappa; MCF-7” value was 2.44 µg/mL and the “EC50 … IgG4, Kappa; NALM6” value was 1.62 µg/mL. For the same binder, the “EC50 … IgG4, Kappa; OVCAR3” value was 0.27 µg/mL. With B11 the “EC50 … IgG4, Kappa; HEK293-CD24” value was 3.09 µg/mL, the “EC50 … IgG4, Kappa; MCF-7” value was 2.26 µg/mL and the “EC50 … IgG4, Kappa; NALM6” value was 6.28 µg/mL. The “EC50 … IgG4, Kappa; OVCAR3” value was 5.77 µg/mL. B12 was tested, and the “EC50 … IgG4, Kappa; HEK293-CD24” value was 0.4 µg/mL, the “EC50 … IgG4, Kappa; MCF-7” value was 0.76 µg/mL and the “EC50 … IgG4, Kappa; NALM6” value was 0.84 µg/mL. For the same binder, the “EC50 … IgG4, Kappa; OVCAR3” value was 0.24 µg/mL. In the case of B13, the “EC50 … IgG1, Kappa; HEK293-CD24” value is reported as 0.08 µg/mL, the “EC50 … IgG1, Kappa; MCF-7” value is reported as 0.44 µg/mL and the “EC50 … IgG1, Kappa; NALM6” value is reported as 1.16 µg/mL. For the same binder, the “EC50 … IgG1, Kappa; OVCAR3” value was 0.14 µg/mL. B14 was tested, and the “EC50 … IgG4, Kappa; HEK293-CD24” value was 0.21 µg/mL, the “EC50 … IgG4, Kappa; MCF-7” value was 0.84 µg/mL and the “EC50 … IgG4, Kappa; NALM6” value was 0.63 µg/mL. The “EC50 … IgG4, Kappa; OVCAR3” value was 5.61 µg/mL. In the case of B15, the “EC50 … IgG1, Kappa; HEK293-CD24” value is reported as 0.04 µg/mL, the “EC50 … IgG1, Kappa; MCF-7” value is reported as 0.7 µg/mL and the “EC50 … IgG1, Kappa; NALM6” value is reported as 0.61 µg/mL. The “EC50 … IgG1, Kappa; OVCAR3” value was 0.15 µg/mL. In the case of B16, the “EC50 … IgG1, Kappa; HEK293-CD24” value is reported as 0.39 µg/mL, the “EC50 … IgG1, Kappa; MCF-7” value is reported as 0.57 µg/mL and the “EC50 … IgG1, Kappa; NALM6” value is reported as 0.46 µg/mL. For the same binder, the “EC50 … IgG1, Kappa; OVCAR3” value was 2.23 µg/mL. B17 was tested, and the “EC50 … IgG1, Kappa; HEK293-CD24” value was 1.31 µg/mL, the “EC50 … IgG1, Kappa; MCF-7” value was 1 µg/mL and the “EC50 … IgG1, Kappa; NALM6” value was 1.19 µg/mL. For the same binder, the “EC50 … IgG1, Kappa; OVCAR3” value was 0.59 µg/mL. With B18 the “EC50 … IgG4, Kappa; HEK293-CD24” value was 2.78 µg/mL, the “EC50 … IgG4, Kappa; MCF-7” value was 1.94 µg/mL and the “EC50 … IgG4, Kappa; NALM6” value was 1.31 µg/mL. The “EC50 … IgG4, Kappa; OVCAR3” value was 0.86 µg/mL. With B19 the “EC50 … IgG1, Kappa; HEK293-CD24” value was 7.02 µg/mL, the “EC50 … IgG1, Kappa; MCF-7” value was 1.06 µg/mL and the “EC50 … IgG1, Kappa; NALM6” value was 1.91 µg/mL. For the same binder, the “EC50 … IgG1, Kappa; OVCAR3” value was 0.56 µg/mL. For B20, the “EC50 … IgG4, Kappa; HEK293-CD24” value was 1.14 µg/mL, the “EC50 … IgG4, Kappa; MCF-7” value was 17.1 µg/mL and the “EC50 … IgG4, Kappa; NALM6” value was 6.16 µg/mL. For the same binder, the “EC50 … IgG4, Kappa; OVCAR3” value was 9.85 µg/mL.
